From patent publication EP4813396A2 (Amphivena Therapeutics, Inc., dated 2026)
Numbering of substitutions follows the chain as printed.

B1: CD33/CD3 tandem diabody 08 (bispecific antibody)
chain: QSVLTQPPSASGTPGQRVTISCSGSRSNIGSNTVNWYQQLPGTAPKLLIYGNNQRPSGVPDRFSGSKSGSSASLAISGLQSEDEADYYCATWDDSLIGWVFGGGTKLTVLGGSGGSEVQLVESGGGLVQPGGSLRLSCAASGFTFSTYAMNWVRQAPGKGLEWVGRIRSKYNNYATYYADSVKDRFTISRDDSKNSLYLQMNSLKTEDTAVYYCARHGNFGNSYVSYFAYWGQGTLVTVSSGGSGGSDIQMTQSPSSLSASVGDRVTITCRSSTGAVTTSNYANWVQQKPGKAPKALIGGTNKRAPGVPSRFSGSLIGDKATLTISSLQPEDFATYYCALWYSNLWVFGQGTKVEIKGGSGGSQVQLVQSGAEVKKPGASVKVSCKASGYTFTSYDINWVRQAPGQGLEWMGWMNPNSGNTGFAQKFQGRVTMTRDTSTSTVYMELSSLRSEDTAVYYCARDRANTDFSYGMDVWGQGTLVTVSSAAAGSHHHHHH
notes: Non-covalent homodimer; domain order 3 VL(CD33)-L1-VH(CD3)-L2-VL(CD3)-L3-VH(CD33); also called TandAb 08; tandem diabody 8
B2: CD33/CD3 tandem diabody 21 (bispecific antibody)
chain: DIQMTQSPSSLSASVGDRVTITCRSSTGAVTTSNYANWVQQKPGKAPKALIGGTNKRAPGVPSRFSGSLIGDKATLTISSLQPEDFATYYCALWYSNLWVFGQGTKVEIKGGSGGSQVQLVQSGAEVKKPGSSVKVSCKASGGTFSSYAISWVRQAPGQGLEWMGGIYPIFGSANYAQKFQGRVTITADESTSTAYMELSSLRSEDTAVYYCAREYYYDSSEWAFDIWGQGTLVTVSSGGSGQSVLTQPPSASGTPGQRVTISCSGSSSNIGSNIVNWYQQLPGTAPKLLIYSNNQRPSGVPDRFSGSKSGTSASLAISGLQSEDEADYYCAAWDDSLKGYVFGGGTKLTVLGGSGGSEVQLVESGGGLVQPGGSLRLSCAASGFTFSTYAMNWVRQAPGKGLEWVGRIRSKYNNYATYYADSVKDRFTISRDDSKNSLYLQMNSLKTEDTAVYYCARHGNFGNSYVSYFAYWGQGTLVTVSSAAAGSHHHHHH
notes: Non-covalent homodimer; domain order 1; also called TandAb 21
B3: CD33/CD3 tandem diabody 22 (bispecific antibody)
chain: B2 chain with A149G, Y168I, N175H, I275T, N277K, P298S, T312S, K339N
notes: Non-covalent homodimer; domain order 1; also called TandAb 22
B4: CD33/CD3 tandem diabody 18 (bispecific antibody)
chain: EVQLVESGGGLVQPGGSLRLSCAASGFTFSTYAMNWVRQAPGKGLEWVGRIRSKYNNYATYYADSVKDRFTISRDDSKNSLYLQMNSLKTEDTAVYYCARHGNFGNSYVSYFAYWGQGTLVTVSSGGSGGSQSVLTQPPSVSGAPGQRVTISCTGSSSNIGAGYDVHWYQQLPGTAPKLLIYGNSNRPSGVPDRFSGSKSGTSASLAITGLQAEDEADYYCQSYDSSLSDVVFGGGTKLTVLGGSGQVQLVQSGAEVKKPGESLKISCKGSGYSFTSYWIGWVRQMPGKGLEWMGIIYPGDSDTRYSPSFQGQVTISADKSISTAYLQWSSLKASDTAMYYCARHKRGSDAFDIWGQGTTVTVSSGGSGGSDIQMTQSPSSLSASVGDRVTITCRSSTGAVTTSNYANWVQQKPGKAPKALIGGTNKRAPGVPSRFSGSLIGDKATLTISSLQPEDFATYYCALWYSNLWVFGQGTKVEIKAAAGSHHHHHH
notes: Non-covalent homodimer; domain order 2 VH(CD3)-L1-VL(CD33)-L2-VH(CD33)-L3-VL(CD3); also called TandAb 18
B5: CD33/CD3 tandem diabody 10 (bispecific antibody)
chain: DIQMTQSPSSLSASVGDRVTITCRSSTGAVTTSNYANWVQQKPGKAPKGLIGGTNKRAPGVPSRFSGSLIGDKATLTISSLQPEDFATYYCALWYSNLWVFGQGTKVEIKGGSGGSQVQLVQSGAEVKKPGASVKVSCKASGYTFTSYDINWVRQAPGQGLEWMGWMNPNSGNTGFAQKFQGRVTMTRDTSTSTVYMELSSLRSEDTAVYYCARDRANTDYSFGMDVWGQGTLVTVSSGGSGQSVLTQPPSASGTPGQRVTISCSGSRSNIGSNTVNWYQQLPGTAPKLLIYGNNQRPSGVPDRFSGSKSGTSASLAISGLQSEDEADYYCATWDDSLIGWVFGGGTKLTVLGGSGGSEVQLVESGGGLVQPGGSLRLSCAASGFTFSTYAMNWVRQAPGKGLEWVGRIRSKYNNYATYYADSVKDRFTISRDDSKNSLYLQMNSLKTEDTAVYYCARHGNFGNSYVSWFAYWGQGTLVTVSSAAAGSHHHHHH
notes: Non-covalent homodimer; domain order 1; also called TandAb 10
B6: CD33/CD3 tandem diabody 01 (bispecific antibody)
chain: B5 chain with S63A, L69G, I70S, D72T, K73D, A74F, Y221F, F223Y, T312S
notes: Non-covalent homodimer; domain order 1 VL(CD3)-L1-VH(CD33)-L2-VL(CD33)-L3-VH(CD3); also called TandAb 01; tandem diabody 1
B7: CD33/CD3 tandem diabody 02 (bispecific antibody)
chain: B5 chain with S63A, L69G, I70S, D72T, K73D, A74F, N218V, S222Y, F223Y
notes: Non-covalent homodimer; domain order 1; also called TandAb 02; tandem diabody 2
B8: CD33/CD3 tandem diabody 09 (bispecific antibody)
chain: B5 chain with Y221F, F223Y, T312S
notes: Non-covalent homodimer; domain order 1; also called TandAb 09; tandem diabody 9
B9: CD33/CD3 tandem diabody 04 (bispecific antibody)
chain: B5 chain with S63A, L69G, I70S, D72T, K73D, A74F, F223L
notes: Non-covalent homodimer; domain order 1; also called TandAb 04; tandem diabody 4
B10: CD33/CD3 tandem diabody 15 (bispecific antibody)
chain: B5 chain with G49A, W469Y
notes: Non-covalent homodimer; domain order 1; also called TandAb 15
B11: CD33/CD3 tandem diabody 11 (bispecific antibody)
chain: B5 chain with F223L
notes: Non-covalent homodimer; domain order 1; also called TandAb 11
B12: CD33/CD3 tandem diabody 03 (bispecific antibody)
chain: B5 chain with S63A, L69G, I70S, D72T, K73D, A74F
notes: Non-covalent homodimer; domain order 1; also called TandAb 03; tandem diabody 3
B13: CD33/CD3 tandem diabody 20 (bispecific antibody)
chain: DIQMTQSPSSLSASVGDRVTITCRSSTGAVTTSNYANWVQQKPGKAPKGLIGGTNKRAPGVPSRFSGSLIGTDFTLTISSLQPEDFATYYCALWYSNLWVFGQGTKVEIKGGSGGSQVQLVQSGAEVKKPGASVKVSCKASGYTFTSYYMHWVRQAPGQGLEWMGIINPSGGSTSYAQKFQGRVTMTRDTSTSTVYMELSSLRSEDTAVYYCARDVVPAAIDYYGMDVWGQGTTVTVSSGGSGQSVLTQPPSASGTPGQRVTISCSGSSSNIGSNTVNWYQQLPGTAPKLLIYSDNQRPSGVPDRFSGSKSGSSASLAISGLQSDDEADYYCATWDDSLNGAVFGGGTKLTVLGGSGGSEVQLVESGGGLVQPGGSLRLSCAASGFTFSTYAMNWVRQAPGKGLEWVGRIRSKYNNYATYYADSVKDRFTISRDDSKNSLYLQMNSLKTEDTAVYYCARHGNFGNSYVSWFAYWGQGTLVTVSS
notes: Non-covalent homodimer; domain order 1; also called TandAb 20

Molecular target: T1, human CD33 on cells (human, UniProt P20138 18-364)
T1 sequence (P20138 18-364): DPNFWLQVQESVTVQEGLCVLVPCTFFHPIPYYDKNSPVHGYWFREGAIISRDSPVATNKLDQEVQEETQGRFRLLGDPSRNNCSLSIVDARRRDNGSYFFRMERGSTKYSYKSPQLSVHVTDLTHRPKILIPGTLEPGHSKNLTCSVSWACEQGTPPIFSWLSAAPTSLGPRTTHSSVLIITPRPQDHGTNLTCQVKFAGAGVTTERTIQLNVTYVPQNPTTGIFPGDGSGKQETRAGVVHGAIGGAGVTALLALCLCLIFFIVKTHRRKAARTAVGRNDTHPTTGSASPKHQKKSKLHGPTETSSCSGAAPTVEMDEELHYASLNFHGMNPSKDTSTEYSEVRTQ
Assay: cell-based or functional assay

Binder | EC50 on HL-60 [pM] (cytotoxicity)
B1 | 1.8
B2 | 7.6
B3 | 3.2
B4 | 6.3
B5 | 7
B6 | 1.9
B7 | 0.5
B8 | 6.8
B9 | 1.8
B10 | 1.8
B11 | 5.9
B12 | 3.6
B13 | 10

Molecular target: T2, human CD3 on T cells (human, UniProt P07766 23-207)
T2 sequence (P07766 23-207): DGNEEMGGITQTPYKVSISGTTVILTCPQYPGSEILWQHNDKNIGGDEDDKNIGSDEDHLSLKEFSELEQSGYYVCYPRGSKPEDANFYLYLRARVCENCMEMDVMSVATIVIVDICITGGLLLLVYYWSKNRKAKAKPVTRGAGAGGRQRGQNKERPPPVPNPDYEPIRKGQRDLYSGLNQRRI
Assay: cell-based or functional assay

CD69 Induction EC50 (pM) | T cell Proliferation in PBMC EC50 (pM) | CD25 Induction EC50 (pM) | Binder
225 | 500 | – | B2
4 | 7 | 10 | B3
6 | 6 | 10 | B5
91 | 89 | 92 | B6
27 | 4 | 42 | B7
7 | 9 | 11 | B8
62 | 44 | 94 | B9
7 | 7 | 6 | B10
5 | 6 | 11 | B11
87 | 63 | 117 | B12
75 | 19 | 98 | B13

Molecular target: T1, human CD33 on cells
Assay: flow cytometry, HL-60 cells

Kd [nM] | Binder
9.7 | B2
0.7 | B3
0.5 | B5
0.6 | B6
0.2 | B7
0.5 | B8
0.5 | B9
0.4 | B10
0.3 | B11
1.1 | B12
4.1 | B13

Molecular target: T1, human CD33 on cells
Assay: flow cytometry, titration on KG-1 cells

Kd [nM] | Binder
0.5 | B1
25.1 | B2
2 | B3
16.3 | B4
1 | B5
0.9 | B6
0.3 | B7
0.3 | B8
0.5 | B9
0.3 | B10
0.5 | B11
1.8 | B12
7 | B13

Molecular target: T1, human CD33 on cells
Assay: flow cytometry, titration on HL-60 cells

Kd [nM] | Binder
0.3 | B1
9.7 | B2
0.7 | B3
3.4 | B4
0.5 | B5
0.6 | B6
0.2 | B7
0.5 | B8
0.5 | B9
0.4 | B10
0.3 | B11
1.1 | B12
4.1 | B13

Molecular target: T1, human CD33 on cells
Assay: flow cytometry, titration on U-937 cells

Kd [nM] | Binder
1.8 | B1
80.2 | B2
8.6 | B3
15.1 | B4
1.7 | B5
7.1 | B6
0.9 | B7
2.2 | B8
1.7 | B9
0.9 | B10
0.6 | B11
8.9 | B12
7.2 | B13

Molecular target: T2, human CD3 on T cells
Assay: flow cytometry, human T-cells (as headed in Table 10)

Kd [nM] | Binder
2.1 | B2
4.1 | B3
1.9 | B5
94.2 | B6
69.8 | B7
2.4 | B8
79.3 | B9
1.3 | B10
2.6 | B11
81.9 | B12
144 | B13

Molecular target: T2, human CD3 on T cells
Assay: flow cytometry, titration on human CD3+ T cells (Jurkat per paragraph 124/paragraph 125)

Kd [nM] | Binder
2.4 | B1
2.1 | B2
4.1 | B3
1.9 | B4
1.9 | B5
94.2 | B6
69.8 | B7
2.4 | B8
79.3 | B9
1.3 | B10
2.6 | B11
81.9 | B12
144 | B13

Molecular target: cynomolgus CD33 on CHO cells (cynomolgus monkey)
Assay: flow cytometry; KD on CHO-cynomolgus CD33 cells divided by KD on CHO-human CD33 cells

KD ratio cynoCD33/ huCD33 | Binder
0.6 | B1
0.9 | B2
0.6 | B3
3.1 | B4
0.8 | B5
0.7 | B6
1.1 | B7
1 | B8
1.1 | B9
1.1 | B10
1.2 | B11
0.6 | B12
33.8 | B13
